Substitutions are numbered along the chain they refer to.

The source of these data is US20190241669A1 (published 2019).

Assay [1] has as its target Human BCMA (human) (UniProt Q02223). Kind of assay: SPR, IgG on chip, huBCMA analyte.
The target in assay [2] is T1, cynomolgus monkey BCMA (cynomolgus monkey, UniProt A0A2K5UD97 1-53).
T1 construct: Soluble analyte in SPR; construct not described; also called cyBCMA; Cyno BCMA
Kind of assay: SPR, IgG on chip, cyBCMA analyte.

Assay [3] has as its target BCMA (analyte of Table 4A). Kind of assay: SPR (Bio-Rad ProteOn XPR36), IgG amine-coupled, BCMA as analyte, kinetic titration; BCMA species and temperature not stated in Table 4A.
In assay [4] the target is BCMA on MM1S cells (human) (UniProt Q02223). Kind of assay: cell-based or functional assay.
BCMA on MM1S cells (human), sequence (Q02223 whole entry): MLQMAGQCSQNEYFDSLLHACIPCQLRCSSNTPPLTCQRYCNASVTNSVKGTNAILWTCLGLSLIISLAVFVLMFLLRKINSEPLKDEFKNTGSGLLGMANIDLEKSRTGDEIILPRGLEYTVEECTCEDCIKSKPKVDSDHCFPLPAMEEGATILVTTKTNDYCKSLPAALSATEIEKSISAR

BCMA (analyte of Table 4A), sequence (Q02223 whole entry): as above
T1 sequence (A0A2K5UD97 entry or part of it): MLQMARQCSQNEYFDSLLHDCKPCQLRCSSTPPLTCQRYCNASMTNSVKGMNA

B1: A02_Rd4_6nM_C01 (antibody, V domains shown)
VH: EVQLLESGGGLVQPGGSLRLSCAASGFTFSSYAMNWVRQAPGKGLEWVSAITASGGSTYYADSVKGRFTISRDNSKNTLYLQMNSLRAEDTAVYYCARYWPMSLWGQGTLVTVSS
VL: EIVLTQSPGTLSLSPGERATLSCRASQSVSAYYLAWYQQKPGQAPRLLMYDASIRATGIPDRFSGSGSGTDFTLTISRLEPEDFAVYYCQQYERWPLTFGQGTKVEIK
notes: IgG
Consider B1, for which, in assay [1], the Kd was found to be 0.03 nM, the koff was 9.2e-05 s⁻¹ and the kon was 3.11e+06 M⁻¹ s⁻¹. In assay [2], this molecule had a Kd of 0.401 nM, a koff of 0.000583 s⁻¹ and a kon of 1.45e+06 M⁻¹ s⁻¹. In assay [3], this molecule came in with a Kd of 0.024 nM, a koff of 2.8e-05 s⁻¹, a kon of 1.2e+06 M⁻¹ s⁻¹ and a t1/2 of 6.85 h.

B2: COMBO_Rd4_0.6nM_C29 (antibody, V domains shown)
VH: B1 VH with A33P, N35S, T52G, A53G, T58L, Y59P, S103D, L104I
VL: B1 VL with A31S, Y32S, E93Q, R94S
notes: IgG
In assay [1], B2 came in with a Kd of 0.019 nM, a koff of 0.000277 s⁻¹ and a kon of 1.47e+07 M⁻¹ s⁻¹. In assay [2], this molecule returned a Kd of 0.084 nM, a koff of 0.000336 s⁻¹ and a kon of 4e+06 M⁻¹ s⁻¹. In assay [3], this molecule showed a Kd of 0.021 nM, a koff of 0.00014 s⁻¹, a kon of 6.6e+06 M⁻¹ s⁻¹ and a t1/2 of 1.38 h.

B3: A02_Rd4_6nM_C16 (antibody, V domains shown)
VH: B1 VH with T52S, A53D, S54F, S103D, L104I
VL: B1 VL with A31D, Y32L, E93Q, R94T
notes: IgG; also called P5AC16; P5A16
In assay [1], B3 registered a Kd of 0.09 nM, a koff of 0.000141 s⁻¹ and a kon of 1.56e+06 M⁻¹ s⁻¹. In assay [2], the Kd came out at 0.118 nM, the koff stood at 0.000158 s⁻¹ and the kon amounted to 1.34e+06 M⁻¹ s⁻¹. In assay [3], this molecule displayed a Kd of 0.059 nM, a koff of 6.2e-05 s⁻¹, a kon of 1.1e+06 M⁻¹ s⁻¹ and a t1/2 of 3.12 h.

B4: P6AP-V1 (protein)
chain: EVQLLESGGGLVQPGGSLRLSCAASGFTFGSYAMTWVRQAPGKGLEWVSAISGSGGNTFYADSVKGRFTISRDNSKNTLYLQMNSLRAEDTAVYYCARVSPIAAPMDYWGQGTLVTVSSGGGGSGGGGSGGGGSEIVLTQSPGTLSLSPGERATLSCRASQLGSFYLAWYQQKPGQAPRLLIYGASSRATGIPDRFSGSGSGTDFTLTISRLEPEDFAVYYCQHYNYPPSFTFGQGTKVEIKGLAVSTISSFFPPGYQIYIWAPLAGTCGVLLLSLVITLYCKRGRKKLLYIFKQPFMRPVQTTQEEDGCSCRFPEEEEGGCELRVKFSRSADAPAYQQGQNQLYNELNLGRREEYDVLDKRRGRDPEMGGKPRRKNPQEGLYNELQKDKMAEAYSEIGMKGERRRGKGHDGLYQGLSTATKDTYDALHMQALPPR
For B4, in assay [4], the % CD107a+ (in CD8+) is 46.4% and the MFI CD107a+ turned out to be 1850.
